“Also recorded” adds a separate entry of the source. Starred links: 1 amine or outer side, 2 acyl side, 3 side chain; linkers in the order of their positions; H or OH if unused. Positions of bridges follow the written chain, without caps; N, C: chain ends. Non-standard residues stand in square brackets, D forms with d. No end group written: not given here. O2beY = O-(2-bromoethyl)-tyrosine (p-2beF), reacts with Cys to form a thioether, O=C([C@H](Cc1ccc(OCCBr)cc1)N[*:1])[*:2]; pCaaF = p-(2-chloroacetamido)-phenylalanine, O=C(CCl)Nc1ccc(C[C@H](N[*:1])C(=O)[*:2])cc1
Legend:
[1] = biological target: T1, integrin αvβ3 on MDA-MB-231 cells (Homo sapiens, UniProt P05106+P06756); assay: flow cytometry of MDA-MB-231 cells, integrin receptor labeling; type: cell-based; conditions: for labeling of integrin receptors on MDA-MB-231 cells (in words): FITC anti-IgG1 Fc detection
T1 construct: known to express high levels of integrin αvβ3 on their surface; endogenous in cells; host or cells: MDA-MB-231
Description: Flow Cytometry Analysis. Cell line MDA-MB-231 was grown in culture to reach confluency. When confluent, media was aspirated, cells were washed once with 1×DPBS (no calcium, no magnesium) (Gibco). Adherent cells were detached from the petri dish with 1 mL of accutase (Gibco) pre-warmed to 37° C., followed by incubated for 5 min at 37° C. Cells were spun down using centrifugation. Supernatant was removed and cells were washed three times with staining buffer (1×PBS with 0.5% BSA). Cells were resuspended in Eppendorf tubes in 100 μL PBS at a concentration of […]. Cyclopeptibodies or Human anti-PD-L1 antibody (1 μg) (R&D Systems, MAB10355) in staining buffer were then added to the tubes with a concentration of 1.5 μM in 200 μL. Eppendorf tubes were then placed on the platform shaker for gently shaking for 1 hour at room temperature. After 1 hour, cells were spun down using centrifugation, then supernatant was removed. After washing three times, cells were resuspended in 200 μL of Fluorescein (FITC) AffiniPure Goat Anti-Human IgG with working concentration of 30 μg/mL (Jackson ImmunoResearch, 109-095-098), incubated in the dark for 30 min at room temperature. Cells were washed as described above, then resuspended in 400 μL staining buffer. Then cells were analyzed on a BD FACS Accuri C6^+ using a filter of 533/30. The cells of interest were gated using Forward and Side scatter (FSC/SSC). 10,000 singlet events were collected for each specimen.
After purification as described in Example 2, these cyclopeptibodies were used to treat breast cancer cells (MDA-MB-231), which are known to express high levels of integrin αvβ3 on their surface. The cyclopeptibody treated cells were then analyzed by flow cytometry using a procedure similar to that described for the PD-L1-targeting cyclopeptibodies in Example 9.

[2] = serum stability assay in human blood serum; type: in vitro ADME
Description: The proteolytic stability of cyclopeptibodies cCLP003-Tras-Fc and L2-m5-Tras-Fc were assessed by incubating these proteins in human blood serum, followed by measurement of the cyclopeptibody activity using an in vitro binding assay with plate-immobilized PD-L1 or Sh as described in Example 7 and 8, respectively.
Serum stability Assay. The human male serum (Sigma-Aldrich) was clarified by centrifugation at 14 000 rpm for 15 min. 50% serum was prepared in phosphate-buffered saline (pH 7.4), then incubated at 37° C. Cyclopeptiodies were dissolved in 30 μL of 50% serum at a final concentration of 1 μM, incubated at 37° C. Serum samples with diluted cyclopeptibodies were prepared in the same way described above over a time course of 30 h for cCLP003-Tras-Fc-His and 24 h for L2-m5-Tras-Fc-His, followed by incubated at 37° C. Intact cyclopeptibodies in serum were quantified using the binding assay described above. In the assay, immobilized PD-L1 or Shh was incubated with 100 μL of serum samples diluted with PBS (1:10 dilution for cCLP003-Tras-Fc-His, 1:100 dilution for L2-m5-Tras-Fc-His). Intact cyclopeptibody in each sample was detected with HRP-conjugate mouse anti-FLAG polyclonal antibody. The absolute concentration of intact cyclopeptibody in each serum sample was quantified using a calibration curve, which was generated from a binding assay in which immobilized PD-L1 or Shh was incubated with cyclopeptibody in serial dilution (0-100 nM for cCLP003-Tras-Fc-His; 0-10 nM for L2-m5-Tras-Fc-His), followed by detected with HRP-conjugate mouse anti-FLAG polyclonal antibody, absorbance at 450 nm was measured as a function of cyclopeptibody concentration.

[3] = biological target: T2, PD-L1 receptor on MDA-MB-231 cells (Homo sapiens, UniProt Q9NZQ7); assay: flow cytometry of MDA-MB-231 cells, PD-L1 labeling with FITC anti-human IgG Fc; type: cell-based; conditions: concentration not given at the place
T2 construct: known to express high levels of PD-L1 on their surface; endogenous in cells; host or cells: MDA-MB-231
Description: The cells were then incubated with fluorescein-conjugated anti-human IgG Fc antibody and analyzed by flow cytometry. The same experiment was carried out in parallel using commercially available anti-PD-L1 antibody as positive control and various negative controls.
Flow Cytometry Analysis. […] When confluent, media was aspirated, cells were washed once with 1×DPBS (no calcium, no magnesium) (Gibco). Adherent cells were detached from the petri dish with 1 mL of accutase (Gibco) pre-warmed to 37° C., followed by incubated for 5 min at 37° C. Cells were spun down using centrifugation. Supernatant was removed and cells were washed three times with staining buffer (1×PBS with 0.5% BSA). Cells were resuspended in Eppendorf tubes in 100 μL PBS at a concentration of 107cells per mL. […] Eppendorf tubes were then placed on the platform shaker for gently shaking for 1 hour at room temperature. After 1 hour, cells were spun down using centrifugation, then supernatant was removed. […] Cells were washed as described above, then resuspended in 400 μL staining buffer. […] The cells of interest were gated using Forward and Side scatter (FSC/SSC). 10,000 singlet events were collected for each specimen.

PD-1/PD-L1 interaction = biological target: T3, PD-1/PD-L1 interaction (Homo sapiens, UniProt Q9NZQ7); assay: PD-L1 competition assay with biotinylated PD-1; type: binding
T3 construct: poly-histidine (C); made in house; PD-1 co-expressed with BirA
Description: Next, we examined the ability of the cyclopeptibody cCLP003-Tras-Fc to inhibit the PD-1/PD-L1 interaction using a competition assay with recombinant biotinylated PD-1 (Bio-PD-1). Briefly, PD-L1 immobilized on a plate was incubated with Bio-PD-1 and varying concentrations of cCLP003-Tras-Fc or control Fc. The PD-L1-bound PD-1 was then quantified colorimetrically (OD450) using horseradish peroxidase (HRP)-conjugated streptavidin.
PD-L1 Competition Assay. PD-L1 was immobilized on microtiter plates as described above. followed by decanting the protein solution and blocking with 0.5% bovine serum albumin in PBS for 2 h at room temperature. After washing, each well was incubated with 100 μL of serial dilutions of cCLP003-Tras-Fc-His for 1 hour at room temperature. Biotinylated PD-1 (500 nM) was added and incubated for 1 h at room temperature. After washing, the bound PD-1 was quantified by means of HRP-conjugate Streptavidin and colorimetric assay as described above. The inhibitory constant (IC50) was determined by fitting the dose-response curves to a 4-parameter equation via nonlinear regression using SigmaPlot. Mean values and standard deviations were calculated from experiments performed in triplicate.

streptavidin = biological target: T4, streptavidin (Streptomyces avidinii, UniProt P22629); assay: in vitro streptavidin binding assay (streptavidin-coated plates, anti-FLAG HRP detection)
T4 construct: purchased Sigma-Aldrich
Text: To prepare a cyclopeptibody capable of binding the protein streptavidin, a cyclic streptavidin-binding peptide previously discovered via phage display (Owens et al, ACS Cent Sci. (2020); 6(3):368-381) was genetically fused to the Fc domain of human IgG1 via a spacer (Entry 1, Table 1). The resulting cyclopeptibody (called Strep-m3-Tras-Fc) was expressed, purified, and characterized as described in Example 4. This construct was confirmed to contain the cyclic peptide constrained via O2beY/Cys thioether (i/i-8) linkage, where ‘i’ indicates the position of the non-canonical amino acid O2beY (also refereed to herein as p-2beF). […]
Streptavidin Binding Assay. […] After washing three times with wash buffer, 100 μL of 2.2 mM o-phenylenediamine dihydrochloride, 4.2 mM urea hydrogen peroxide, 100 mM dibasic sodium phosphate, and 50 mM sodium citrate, pH 5.0, were added to each well, followed by measurement of the absorbance at 450 nm after 10-20 min using a Tecan Infinite 1000 plate reader. Equilibrium dissociation constants (Kp) were determined by fitting the dose-response curves to a 1:1 binding isotherm equation via nonlinear regression. using SigmaPlot. Mean values and standard deviations were calculated from experiments performed in triplicate.

Sonic Hedgehog (Shh) = Sonic Hedgehog (Shh) (Homo sapiens, UniProt Q15465); assay: in vitro Shh binding assay (plate-immobilized Shh)
Description: Streptavidin Binding Assay. For the streptavidin binding assays, streptavidin-coated plates (Sigma-Aldrich) were used. For the Keap1, Shh and PD-L1 binding assay, target protein was immobilized on microtiter plates by incubating 100 μL of a 4 μM protein solution in PBS buffer overnight at 4° C., followed by decanting the protein solution and blocking with 0.5% bovine serum albumin in PBS for 2 h at room temperature. After washing (3×150 μL of PBS with 0.05% Tween-20), each well was incubated with 100 μL of purified FLAG-tagged cyclopeptibody at varying concentrations for 1 hour at room temperature. After washing three times with wash buffer, each well was incubated with 100 μL of 1:2500 dilution of HRP-conjugate mouse anti-FLAG polyclonal antibody (Sigma-Aldrich) for 1 hour at room temperature. After washing three times with wash buffer, 100 μL of 2.2 mM o-phenylenediamine dihydrochloride, 4.2 mM urea hydrogen peroxide, 100 mM dibasic sodium phosphate, and 50 mM sodium citrate, pH 5.0, were added to each well, followed by measurement of the absorbance at 450 nm after 10-20 min using a Tecan Infinite 1000 plate reader. Equilibrium dissociation constants (Kp) were determined by fitting the dose-response curves to a 1:1 binding isotherm equation via nonlinear regression. using SigmaPlot. Mean values and standard deviations were calculated from experiments performed in triplicate. […]

T2 sequence (Q9NZQ7 19-290): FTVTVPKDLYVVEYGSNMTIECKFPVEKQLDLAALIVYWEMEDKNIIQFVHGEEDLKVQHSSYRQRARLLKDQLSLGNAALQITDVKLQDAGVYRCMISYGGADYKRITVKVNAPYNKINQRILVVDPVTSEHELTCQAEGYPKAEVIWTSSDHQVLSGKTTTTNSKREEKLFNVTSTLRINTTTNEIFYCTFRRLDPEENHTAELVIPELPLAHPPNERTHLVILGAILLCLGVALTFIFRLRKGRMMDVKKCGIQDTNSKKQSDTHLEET
T1 sequence (P06756 31-889 limits assumed): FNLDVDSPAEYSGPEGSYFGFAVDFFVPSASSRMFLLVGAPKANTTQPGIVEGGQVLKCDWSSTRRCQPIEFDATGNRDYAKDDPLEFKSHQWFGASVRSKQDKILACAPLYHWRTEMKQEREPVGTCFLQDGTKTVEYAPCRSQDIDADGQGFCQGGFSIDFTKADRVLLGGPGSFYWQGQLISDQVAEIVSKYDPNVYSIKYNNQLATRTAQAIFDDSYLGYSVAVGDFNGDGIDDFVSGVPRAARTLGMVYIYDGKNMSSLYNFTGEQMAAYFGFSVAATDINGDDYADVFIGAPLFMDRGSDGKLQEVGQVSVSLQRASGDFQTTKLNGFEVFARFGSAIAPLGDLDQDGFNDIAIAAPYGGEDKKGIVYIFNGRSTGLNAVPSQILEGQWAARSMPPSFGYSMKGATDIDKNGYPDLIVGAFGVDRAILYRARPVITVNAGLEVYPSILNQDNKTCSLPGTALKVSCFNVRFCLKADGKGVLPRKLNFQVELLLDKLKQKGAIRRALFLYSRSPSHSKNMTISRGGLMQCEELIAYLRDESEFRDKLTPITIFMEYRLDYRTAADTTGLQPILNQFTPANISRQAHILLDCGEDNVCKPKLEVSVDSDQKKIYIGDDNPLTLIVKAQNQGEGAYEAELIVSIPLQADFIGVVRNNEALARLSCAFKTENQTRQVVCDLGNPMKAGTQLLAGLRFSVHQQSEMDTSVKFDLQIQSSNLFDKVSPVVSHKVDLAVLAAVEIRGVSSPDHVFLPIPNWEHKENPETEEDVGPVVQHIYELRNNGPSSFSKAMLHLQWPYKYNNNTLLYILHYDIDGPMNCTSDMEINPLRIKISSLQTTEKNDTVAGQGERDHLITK
T1 sequence (P06756 891-1048 partner limits assumed): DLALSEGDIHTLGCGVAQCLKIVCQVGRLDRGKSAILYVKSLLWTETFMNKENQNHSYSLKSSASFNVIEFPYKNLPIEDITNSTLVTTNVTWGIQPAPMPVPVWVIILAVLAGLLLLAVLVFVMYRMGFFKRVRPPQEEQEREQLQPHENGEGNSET
T1 sequence (P05106 27-788): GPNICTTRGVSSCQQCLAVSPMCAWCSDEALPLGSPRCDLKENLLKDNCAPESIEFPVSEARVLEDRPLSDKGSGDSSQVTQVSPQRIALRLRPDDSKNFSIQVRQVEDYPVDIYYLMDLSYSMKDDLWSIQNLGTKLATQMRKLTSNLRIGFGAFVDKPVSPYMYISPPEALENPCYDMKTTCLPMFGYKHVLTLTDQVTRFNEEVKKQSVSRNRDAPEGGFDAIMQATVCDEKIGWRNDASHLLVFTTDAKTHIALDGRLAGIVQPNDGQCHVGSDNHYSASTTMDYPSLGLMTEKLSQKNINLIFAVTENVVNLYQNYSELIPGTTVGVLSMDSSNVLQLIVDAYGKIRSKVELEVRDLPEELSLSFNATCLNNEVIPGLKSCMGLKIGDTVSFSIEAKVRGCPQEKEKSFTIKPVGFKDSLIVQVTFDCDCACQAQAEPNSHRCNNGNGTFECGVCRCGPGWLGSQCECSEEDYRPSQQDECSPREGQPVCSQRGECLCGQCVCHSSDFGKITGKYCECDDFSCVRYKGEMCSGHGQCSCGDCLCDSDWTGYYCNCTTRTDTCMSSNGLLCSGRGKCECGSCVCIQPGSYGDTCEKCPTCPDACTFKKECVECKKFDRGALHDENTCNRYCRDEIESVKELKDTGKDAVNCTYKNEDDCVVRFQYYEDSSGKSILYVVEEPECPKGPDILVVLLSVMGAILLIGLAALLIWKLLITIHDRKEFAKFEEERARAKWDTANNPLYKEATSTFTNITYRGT
T4 sequence (P22629 25-183): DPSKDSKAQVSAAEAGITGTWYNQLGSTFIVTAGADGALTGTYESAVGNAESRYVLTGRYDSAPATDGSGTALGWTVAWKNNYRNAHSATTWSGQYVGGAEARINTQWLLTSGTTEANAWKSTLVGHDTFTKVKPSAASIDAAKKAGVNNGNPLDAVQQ
T3 sequence (Q9NZQ7 19-238 limits assumed): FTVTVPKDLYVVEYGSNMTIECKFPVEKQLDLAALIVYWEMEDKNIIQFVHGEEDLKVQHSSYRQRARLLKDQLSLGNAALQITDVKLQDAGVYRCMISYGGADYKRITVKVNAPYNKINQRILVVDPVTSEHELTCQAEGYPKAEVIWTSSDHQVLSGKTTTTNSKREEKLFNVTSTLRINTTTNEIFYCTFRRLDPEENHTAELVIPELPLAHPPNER

Substance: FLAG-(GS)2-CRDRGDYZ-(Q)6-IEGR-(Fc)^1-H6 (DYKDDDDKGSGSCRDRGDY[pCaaF]QQQQQQIEGR-{Fc-H6}; thioether 13-20 (inferred)) [RGD5R (pCaaF)-Tras-Fc]
- labeling of integrin receptors on MDA-MB-231 cells (in words) [1]: label the cells
- labeling of integrin receptors on MDA-MB-231 cells (in words) ([1]; listed as cRGD5R (pCaaF)-Tras-Fc): selective labeling of the integrin receptors

Substance: FLAG-(GS)2-CRDRGDYZ-(Q)6-IEGR-(Fc)^1-H6 [RGD5R (pCmF)-Tras-Fc]
- labeling of integrin receptors on MDA-MB-231 cells (in words) ([1]; listed as cRGD5R (pCmF)-Tras-Fc): selective labeling of the integrin receptors
- receptor affinity and labeling efficiency compared to the corresponding cyclic peptides ([1]; MDA-MB-231 cells): superior receptor affinity and labeling efficiency

Substance: FLAG-(GS)2-TLSWZEAMDMCTSS-(Q)6-(Fc)^1-H6 (DYKDDDDKGSGSTLSW[O2beY]EAMDMCTSSQQQQQQ-{Fc-H6}; thioether 17-23 (inferred)) [L2-m5-Tras-Fc]
- half-life in human blood serum, indicated ([2]; 50% serum, 37° C., readout Shh binding assay): 30 to 50 h
- loss in activity in human blood serum ([2]; over 24 h, readout Shh binding assay): no loss in activity

Substance: FLAG-(GS)2-WHFSZNWRWLPC-(Q)6-(Fc)^1-H6 (DYKDDDDKGSGSWHFS[pCaaF]NWRWLPCQQQQQQ; thioether 17-24 (inferred); not fully specified (C-terminus)) [cCLP003-Tras-Fc]
- staining / labeling of PD-L1 receptors on MDA-MB-231 cells (in words) [3]: selective labeling of PD-L1 receptors
- half-life in human blood serum ([2]; 50% serum, 37° C., readout PD-L1 binding assay): over 24 hrs.

Substance: Fc domain: human IgG1 Fc domain alone, negative control [reference compound]
- labeling of integrin receptors on MDA-MB-231 cells (in words) [1]: minimal or significantly reduced staining; also recorded: negligible non-specific interaction
- inhibition of PD-1/PD-L1 interaction (in words) (PD-1/PD-L1 interaction): did not exhibit significant inhibitory activity
- staining / labeling of PD-L1 receptors on MDA-MB-231 cells (in words) [3]: negligible non-specific interaction
- staining / labeling of PD-L1 receptors on MDA-MB-231 cells (in words) ([3]; listed as human IgG1 Fc domain): negligible staining
- streptavidin binding (in words) (streptavidin): no binding
- Shh binding (in words) (Sonic Hedgehog (Shh)): no significant binding below 500 nM

From patent US20250197448A1, “CYCLOPEPTIBODIES AND USES THEREOF” (University of Rochester, priority 2022, published 2025)
